Reference: article PMC8231982 (Molecules, 2021)

Legend:
Conditions in all cases: both partners purified
HA H3 top domain [1] = target: T1, HA H3 top domain ( (Figure 2 shows HA of …, UniProt P03437)); assay: SPR
T1 construct: source: HEK293T, pTT5 vector, purified via His-tag on Ni-NTA

HA H3 top domain [2] = target: T1, HA H3 top domain; assay: ELISA
[3] = target: T2, wild-type cyanovirin-N (WT CV–N) ( (cyanobacterial lectin), UniProt P81180 1-101); assay: SPR
T2 construct: also called WT CV–N monomer; monomeric CV–N
T2 sequence: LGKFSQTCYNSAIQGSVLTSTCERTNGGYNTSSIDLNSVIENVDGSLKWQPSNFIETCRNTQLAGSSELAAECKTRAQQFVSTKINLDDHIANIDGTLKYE

B1: HC19 Fab, anti-influenza HA (Fab, V domains shown)
VH: QVQLKESGPGLVAPSQSLSITCTVSGFLLISNGVHWVRQPPGKGLEWLGVIWAGGNTNYNSALMSRVSISKDNSKSQVFLKMKSLQTDDTAMYYCARDFYDYDVFYYAMDYWGQGTSVTVSS
VL: QAVVTQESALTTSPGETVTLTCRSSTGAVTTSNYANWVQEKPDHLFTGLIGGTNNRAPGVPARFSGSLIGDKAALTITGAQTEDEAIYFCALWYSNHWVFGGGTKLTVL
notes: also called anti-HA HC19; HC19 anti-influenza Fab; source: HEK293-6E, transient transfection, purified from supernatant (protein A, SEC)
In the case of B1, the Kd (HA H3 top domain [1]) is reported as 64 nM, the koff (HA H3 top domain [1]) is reported as 0.0231 s⁻¹ and the kon (HA H3 top domain [1]) is reported as 360000 M⁻¹ s⁻¹. It also gave a Kd (HA H3 top domain [2]) of 12.5 nM.

B2: HIV-1 gp140 trimer, Clade A 92 UG 037.8 (domain or fragment)
chain: not shown
B2 gave a Kd [3] of 120 nM.
